The target of series [1] is AmβXyl, β-xylosidase (GH3) from Alicyclobacillus mali FL18 (Alicyclobacillus mali FL18). The series can be described thus: SEC-MALS; size-exclusion chromatography (S200 16/60) with triple-angle light scattering and QELS; 500 μg loaded; 100 mM NaCl, 25 mM sodium phosphate pH 7.5, 1 mM DTT; 0.5 mL/min.
Substrate in series [2]: O=[N+]([O-])c1ccc(O[C@@H]2OC[C@@H](O)[C@H](O)[C@H]2O)cc1
The series can be described thus: pNP release, A405 nm, Michaelis-Menten fit (GraphPad Prism). Conditions: 50 mM sodium citrate pH 5.6, 1 mM DTT, 80 °C, substrate 0.1-8.0 mM. It counts as biochemical, Alicyclobacillus mali (ex Roth et al. 2021). An excerpt:
(§1) pNP release, A405 nm, Michaelis-Menten fit (GraphPad Prism) on AmβXyl

Substrate in series [3]: O=[N+]([O-])c1ccc(O[C@@H]2O[C@@H](CO)[C@H](O)[C@H]2O)cc1
The description is as above. It counts as biochemical, Alicyclobacillus mali (ex Roth et al. 2021). Conditions: 50 mM sodium citrate pH 5.6, 1 mM DTT, 80 °C, substrate 0.1-8.0 mM.
Text: as §1

In series [1], “AmβXyl, β-xylosidase (GH3) from Alicyclobacillus mali FL18 (enzyme)” yielded a stoichiometry N of 2.

B1: AmβXyl (Alicyclobacillus mali (ex Roth et al. 2021)) (protein)
chain: MYLDPAQSVDARVDALLADMTLEEKVAQLTSIWAFEILDDLRFSAEKAAAVLGQGIGQVTRIGGATNLDPPDVARLANQIQRYLRDHTRLGIPALIHEESCSGYMAKGATCFPQTIGIASTWDVDLAQRIGAIIRDQMRAVGARQALAPLLDVARDPRWGRVEETFGEDPYLVAQMGIAYVRGLQGEDLSQGVMATGKHFVGYGASEGGMNWAPAHIPERELREVYLFPFEAAVREAGLGAIMPGYHELDGVPCHDNPGLLRETLRGRWGFQGLVVSDYFAVNQLFEYHQVARDKAEAAALAVRAGVDVELPTRDVYGKPLIEAVARGLVSVAEIDELVRRVLTWKFRLGLFDHPFVDEGAAIAVFDNAEQRKVAREAAEKSLVLLKNDGLLPLAPRGTIAVIGPNAHTTRNLVGDYAYPCHIESLLEQSEDNVFQTPLPSGVKHVDEFIPMRTILEAIGHRVGSEAQVVYAKGCDVLEGEDADLDEAVALAAQSDVAVVVVGDRAGLTDACTTGESRDRATLSLIGRQEELVRRVLATGTKTVVVLVSGRPLAIPDIAERANAVLEAWLPGEEGAEAVAAVLFGDVNPSGKLPVTIPRSVGQVPIYYGHKPSGGRSHWKGAYVDESNLPLYPFGHGLSYTAFEYRDLTLSASELGVHGEIEVACVIENVGARAGEEVVQLYARDVAADVTRPVKVLCGFARVPLAPGEKARVRFRVSAHQFGFYNREMRYVVEPGEIEIMVGASSEDIRLRGMVRIHGAMTEIEHEKVYQSAVNVERM
notes: synthetic codon-optimised gene in pET-30a(+) NcoI/HindIII, N-terminal His-tag; E. coli BL21 (DE3) RIL; ~89 kDa on SDS-PAGE, dimer ~177 kDa
Take B1: in series [2], the Michaelis-Menten constant (Km) turned out to be 0.52 mM, the turnover number (kcat) was 1610 s⁻¹ and the kcat/Km was determined as 3.09e+06 M⁻¹ s⁻¹. In addition, in series [3], the Km is 10.56 mM, the kcat worked out at 2400 s⁻¹ and the kcat/Km came out at 227000 M⁻¹ s⁻¹.

A word on the stoichiometry N: it is the number of molecules, sites or subunits per partner or assembly. A word on the Km: it is the concentration of substrate that gives half-maximal velocity. By kcat is commonly meant the number of substrate molecules converted per active site and unit of time at saturation. What is called kcat/Km is the turnover number divided by the Michaelis constant.

For the origin of these results see PMC9696088, “Alicyclobacillus mali FL18 as a Novel Source of Glycosyl Hydrolases: Characterization of a New Thermophilic β-Xylosidase Tolerant to Monosaccharides” (International Journal of Molecular Sciences, 2022).
